Results: patent US20260125472A1 (HEFEI TG IMMUNOPHARMA, published 2026)

Tests used:
[1] = target: T1, Trop2 on A-375-Trop2 melanoma cells (UniProt P09758 27-323, limits assumed); experiment: flow cytometry, A-375-Trop2 cells, MFI [panel B]
T1 construct: whole, on cells
T1 sequence (looked up): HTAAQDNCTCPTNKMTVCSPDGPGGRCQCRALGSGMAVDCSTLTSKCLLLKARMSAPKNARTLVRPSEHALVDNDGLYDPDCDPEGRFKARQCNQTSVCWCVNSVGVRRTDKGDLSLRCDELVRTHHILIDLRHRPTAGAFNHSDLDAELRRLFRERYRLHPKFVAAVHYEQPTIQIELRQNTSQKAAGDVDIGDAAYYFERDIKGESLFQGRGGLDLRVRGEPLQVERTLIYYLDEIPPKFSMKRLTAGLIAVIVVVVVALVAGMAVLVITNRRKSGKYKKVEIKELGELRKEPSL
Method in brief: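 Cells were blocked with goat serum at 4° C for 30 min, then incubated with serially diluted bispecific antibodies or hIgG1LALA control at 4° C for 30 min. Bound antibody was detected with Alexa-647 anti-human IgG (4° C, 30 min, dark) and read by flow cytometry.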

Trop2 protein = target: T2, Trop2 protein (UniProt P09758 27-274); experiment: ELISA, coated Trop2 protein, OD450
T2 construct: Bought recombinant protein; also called Trop2-Biotin protein (biotin-labelled, bridging ELISA)
T2 sequence (looked up): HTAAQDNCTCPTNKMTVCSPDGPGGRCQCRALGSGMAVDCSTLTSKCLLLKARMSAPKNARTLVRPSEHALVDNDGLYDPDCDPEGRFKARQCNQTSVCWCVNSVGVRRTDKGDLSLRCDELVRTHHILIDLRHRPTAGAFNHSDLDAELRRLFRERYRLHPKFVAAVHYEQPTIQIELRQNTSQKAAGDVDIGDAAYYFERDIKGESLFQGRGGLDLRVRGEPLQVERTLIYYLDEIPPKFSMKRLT
Method in brief: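 Plates coated overnight at 4° C with Trop2 at 2 μg/ml, blocked with PBS/10% BSA; serially diluted bispecifics bound 1 h at 37° C. Detection by HRP anti-human Fab secondary, TMB 3 min, acid stop, OD450.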

CD3 on CD8 T cells = target: T3, CD3 on CD8 T cells (Homo sapiens (Human), UniProt P07766 23-207); experiment: flow cytometry, CD8 T cells in PBMCs, binding ratio % [panel A]
T3 construct: Native CD3 complex on CD8 T cells among PBMCs; also called T cells (PBMCs gated with anti-human CD8 antibody)
T3 sequence (P07766 23-207 limits assumed): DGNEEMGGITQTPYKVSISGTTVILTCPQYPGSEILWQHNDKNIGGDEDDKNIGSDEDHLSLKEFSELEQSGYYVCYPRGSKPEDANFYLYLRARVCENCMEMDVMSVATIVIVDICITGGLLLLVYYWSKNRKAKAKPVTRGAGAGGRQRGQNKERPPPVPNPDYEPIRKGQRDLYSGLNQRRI

EC50 (read off the curve) [1]: ~1 µg/mL | EC50 (read off the curve) (Trop2 protein): ~0.008 µg/mL | EC50 (read off the curve) (CD3 on CD8 T cells): ~0.7 µg/mL
B1: Cross311×Trop2 (bispecific antibody)
scFv: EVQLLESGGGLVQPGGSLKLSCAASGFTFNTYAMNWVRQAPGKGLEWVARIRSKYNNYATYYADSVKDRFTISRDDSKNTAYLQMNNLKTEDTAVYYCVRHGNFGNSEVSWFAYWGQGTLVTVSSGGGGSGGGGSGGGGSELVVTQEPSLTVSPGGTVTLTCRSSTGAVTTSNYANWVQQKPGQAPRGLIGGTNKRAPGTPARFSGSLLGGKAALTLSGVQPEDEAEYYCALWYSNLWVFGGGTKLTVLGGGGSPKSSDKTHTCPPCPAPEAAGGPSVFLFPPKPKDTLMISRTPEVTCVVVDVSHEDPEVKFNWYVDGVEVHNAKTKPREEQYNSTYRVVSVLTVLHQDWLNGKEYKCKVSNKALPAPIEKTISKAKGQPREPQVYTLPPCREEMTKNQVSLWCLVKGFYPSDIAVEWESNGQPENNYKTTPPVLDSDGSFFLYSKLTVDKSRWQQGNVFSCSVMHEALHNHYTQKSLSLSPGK
heavy: QVQLQQSGSELKKPGASVKVSCKASGYTFTNYGMNWVKQAPGQGLKWMGWINTYTGEPTYTDDFKGRFAFSLDTSVSTAYLQISSLKADDTAVYFCARGGFGSSYWYFDVWGQGSLVTVSSASTKGPSVFPLAPSSKSTSGGTAALGCLVKDYFPEPVTVSWNSGALTSGVHTFPAVLQSSGLYSLSSVVTVPSSSLGTQTYICNVNHKPSNTKVDKKVEPKSSDKTHTCPPCPAPEAAGGPSVFLFPPKPKDTLMISRTPEVTCVVVDVSHEDPEVKFNWYVDGVEVHNAKTKPREEQYNSTYRVVSVLTVLHQDWLNGKEYKCKVSNKALPAPIEKTISKAKGQPREPQVCTLPPSREEMTKNQVSLSCAVKGFYPSDIAVEWESNGQPENNYKTTPPVLDSDGSFFLVSKLTVDKSRWQQGNVFSCSVMHEALHNHYTQKSLSLSPGK
light: DIQLTQSPSSLSASVGDRVSITCKASQDVSIAVAWYQQKPGKAPKLLIYSASYRYTGVPDRFSGSGSGTDFTLTISSLQPEDFAVYYCQQHYITPLTFGAGTKVEIKRTVAAPSVFIFPPSDEQLKSGTASVVCLLNNFYPREAKVQWKVDNALQSGNSQESVTEQDSKDSTYSLSSTLTLSKADYEKHKVYACEVTHQGLSSPVTKSFNRGEC
